Measured values from patent publication US20260274985A1 (MYTHIC THERAPEUTICS, published 2026).
Positions count from the first letter of the chain named.

B1: MYT13265 (antibody, V domains shown)
VH: QVQLVQSGAEVKKPGASVKVSCKASGYTFTTAGMQWVRQAPGQGLEWMGWINTHSGVPKYAEDFKGRVTISADTSTSTAYLQLSSLKSEDTAVYYCAHSGFGSSYWYFDVWGQGTLVTVSS
VL: DIQMTQSPSSLSASVGDRVTITCKASQDVSTAVAWYQQKPGKAPKLLIYSASHRYTGVPSRFSGSGSGTDFTLTISSLQPEDFAVYYCQQHYITPLTFGQGTKLEIK
notes: Full-length IgG; also called Datopotamab HC-LC pairing variant
B2: MYT13426 (antibody, V domains shown)
VH: QVQLQQSGSELKKPGASVKVSCKASGYTFTNYGMNWVKQAPGQGLKWMGWINTYTGEPTYTDHFKGRFAFSLDTSVSTAYLQISSLKADDTAVYFCARGGFGSSYWYFDVWGQGSLVTVSS
VL: B1 VL with M4L, T20S, S30H, T31I, A51H, H53Y, S60D, I93H, Q100A, L104V
notes: IgG; also called Sacituzumab HC-LC pairing variant
B3: MYT13433 (antibody, V domains shown)
VH: B2 VH with D62H, H63D
VL: B1 VL with M4L, T20S, T31I, A51H, S60D, I93H, Q100A, L104V
notes: as for B2
B4: MYT11691 (antibody, V domains shown)
VH: B1 VH with H98R
VL: B1 VL
notes: IgG; also called Datopotamab LC variant
B5: MYT13429 (antibody, V domains shown)
VH: B2 VH with H63D, G66H
VL: B1 VL with M4L, T20S, S30H, T31I, A51H, H53Y, S60D, I93H, Q100A, L104V
notes: as for B2
B6: MYT13368 (antibody, V domains shown)
VH: B2 VH with Y60H, H63D
VL: B1 VL with M4L, T20S, S30H, T31I, V33H, H53Y, S60D, Q100A, L104V
notes: as for B2
B7: MYT13160 (antibody, V domains shown)
VH: B2 VH with Y32H, H63D
VL: B1 VL with M4L, T20S, S30H, T31I, H53Y, S60D, Q100A, L104V
notes: as for B2
B8: MYT13424 (antibody, V domains shown)
VH: B2 VH with Y60H, H63D
VL: B1 VL with M4L, T20S, S30H, T31I, A51H, H53Y, S60D, I93H, Q100A, L104V
notes: as for B2
B9: MYT11690 (antibody, V domains shown)
VH: B1 VH with H98R
VL: B1 VL with S52H, H53Y
notes: as for B4
B10: MYT13290 (antibody, V domains shown)
VH: QVQLQESGPGLVKPSETLSLTCTVSGGSISSYGVHWIRQPPGKGLEWIGVIWTSGVTDYNSALMGRVTISVDTSKNQFSLKLSSVTAADTAVYYCARDGDYDRYTHDYWGQGTLVTVSS
VL: DIVMTQSPDSLAVSLGERATINCRASKSVSTSGYSYMHWYQQKPGQPPKLLIYLASNLESGVPDRFSGSGSGTDFTLTISSLQAEDVAVYYCHHSRELPYTFGQGTKLEIK
notes: Full-length IgG; also called h7E6SVG HC-LC pairing variant
B11: MYT13283 (antibody, V domains shown)
VH: B10 VH with D102H, H106M
VL: B10 VL with S60H, H93Q
notes: as for B10
B12: MYT11567 (antibody, V domains shown)
VH: B2 VH with G26H, H63D
VL: B1 VL with M4L, T20S, T31I, H53Y, S60D, Q100A, L104V
notes: Sacituzumab variant, His at HCV position 26 (H1 01)
B13: MYT11579 (antibody, V domains shown)
VH: B2 VH with N52H, H63D
VL: B1 VL with M4L, T20S, T31I, H53Y, S60D, Q100A, L104V
notes: Sacituzumab variant, His at HCV position 52 (H2 03)
B14: MYT11575 (antibody, V domains shown)
VH: B2 VH with M34H, H63D
VL: B1 VL with M4L, T20S, T31I, H53Y, S60D, Q100A, L104V
notes: Sacituzumab variant, His at HCV position 34 (H1 09)
B15: MYT11572 (antibody, V domains shown)
VH: B2 VH with N31H, H63D
VL: B1 VL with M4L, T20S, T31I, H53Y, S60D, Q100A, L104V
notes: Sacituzumab variant, His at HCV position 31 (H1 06)
B16: MYT11574 (antibody, V domains shown)
VH: B2 VH with G33H, H63D
VL: B1 VL with M4L, T20S, T31I, H53Y, S60D, Q100A, L104V
B17: MYT11581 (antibody, V domains shown)
VH: B2 VH with Y54H, H63D
VL: B1 VL with M4L, T20S, T31I, H53Y, S60D, Q100A, L104V
notes: Sacituzumab variant, His at HCV position 54 (H2 05)
B18: MYT11584 (antibody, V domains shown)
VH: B2 VH with E57H, H63D
VL: B1 VL with M4L, T20S, T31I, H53Y, S60D, Q100A, L104V
notes: Sacituzumab variant, His at HCV position 57 (H2 08)
B19: MYT11576 (antibody, V domains shown)
VH: B2 VH with N35H, H63D
VL: B1 VL with M4L, T20S, T31I, H53Y, S60D, Q100A, L104V
notes: Sacituzumab variant, His at HCV position 35 (H1 10)
B20: MYT11573 (antibody, V domains shown)
VH: B2 VH with Y32H, H63D
VL: B1 VL with M4L, T20S, T31I, H53Y, S60D, Q100A, L104V
B21: MYT11577 (antibody, V domains shown)
VH: B2 VH with W50H, H63D
VL: B1 VL with M4L, T20S, T31I, H53Y, S60D, Q100A, L104V
B22: MYT11569 (antibody, V domains shown)
VH: B2 VH with T28H, H63D
VL: B1 VL with M4L, T20S, T31I, H53Y, S60D, Q100A, L104V
notes: Sacituzumab variant, His at HCV position 28 (H1 03)
B23: MYT11570 (antibody, V domains shown)
VH: B2 VH with F29H, H63D
VL: B1 VL with M4L, T20S, T31I, H53Y, S60D, Q100A, L104V
notes: Sacituzumab variant, His at HCV position 29 (H1 04)
B24: MYT11580 (antibody, V domains shown)
VH: B2 VH with T53H, H63D
VL: B1 VL with M4L, T20S, T31I, H53Y, S60D, Q100A, L104V
notes: Sacituzumab variant, His at HCV position 53 (H2 04)
B25: MYT11582 (antibody, V domains shown)
VH: B2 VH with T55H, H63D
VL: B1 VL with M4L, T20S, T31I, H53Y, S60D, Q100A, L104V
notes: Sacituzumab variant, His at HCV position 55 (H2 06)
B26: MYT11578 (antibody, V domains shown)
VH: B2 VH with I51H, H63D
VL: B1 VL with M4L, T20S, T31I, H53Y, S60D, Q100A, L104V
notes: Sacituzumab variant, His at HCV position 51 (H2 02)
B27: MYT11585 (antibody, V domains shown)
VH: B2 VH with P58H, H63D
VL: B1 VL with M4L, T20S, T31I, H53Y, S60D, Q100A, L104V
notes: Sacituzumab variant, His at HCV position 58 (H2 09)
B28: MYT11571 (antibody, V domains shown)
VH: B2 VH with T30H, H63D
VL: B1 VL with M4L, T20S, T31I, H53Y, S60D, Q100A, L104V
notes: Sacituzumab variant, His at HCV position 30 (H1 05)
B29: MYT11568 (antibody, V domains shown)
VH: B2 VH with Y27H, H63D
VL: B1 VL with M4L, T20S, T31I, H53Y, S60D, Q100A, L104V
notes: Sacituzumab variant, His at HCV position 27 (H1 02)
B30: MYT11753 (antibody, V domains shown)
VH: B10 VH with H106M
VL: B10 VL with G33H, H93Q
notes: hu7E6SVG variant, His at LCV position 33 (L1 10); screened as IgG in Expi293 supernatant
B31: MYT11754 (antibody, V domains shown)
VH: B10 VH with H106M
VL: B10 VL with Y34H, H93Q
notes: hu7E6SVG variant, His at LCV position 34 (L1 11); screened as IgG in Expi293 supernatant
B32: MYT11755 (antibody, V domains shown)
VH: B10 VH with H106M
VL: B10 VL with S35H, H93Q
notes: hu7E6SVG variant, His at LCV position 35 (L1 12); screened as IgG in Expi293 supernatant

The binders below were run against T1, Human TROP2 Protein, His Tag (Acro Biosystems) (human, UniProt P09758 27-274) (assay: Octet (BLI); antigen and pH not given).
T1 construct: not shown: His tag
T1 sequence (looked up): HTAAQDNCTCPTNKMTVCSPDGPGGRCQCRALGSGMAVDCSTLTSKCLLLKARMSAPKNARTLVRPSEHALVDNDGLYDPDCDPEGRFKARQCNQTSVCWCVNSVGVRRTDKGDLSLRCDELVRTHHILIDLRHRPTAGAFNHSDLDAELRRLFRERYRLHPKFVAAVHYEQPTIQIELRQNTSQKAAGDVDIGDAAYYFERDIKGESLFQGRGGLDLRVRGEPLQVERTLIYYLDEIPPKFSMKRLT

| Binder | Kd [nM] | Octet response at 33.33 nM (Y-Axis) nm [nm] |
| --- | --- | --- |
| B1 | 9.5 | 0.0712 |
| B2 | 1.51 | 0.132 |
| B3 | 4.36 | 0.12 |
| B4 | 6.03 | 0.0719 |
| B5 | 2.85 | 0.122 |
| B6 | 1.03 | 0.14 |
| B7 | 0.009 | 0.077 |
| B8 | 1.97 | 0.123 |
| B9 | 3.4 | 0.0911 |
| B10 | 7.45 | 0.103 |
| B11 | 5.32 | 0.108 |

These binders were tested against T2, Human TROP2 Protein, His Tag (Acro Biosystems) (human, UniProt P09758 27-274) (assay: BLI (Octet)).
T2 construct: Bought protein; not shown: His tag
T2 sequence (looked up): T1 sequence (looked up)
Protocol: (§1) After allowing for four days of protein expression, cell culture supernatants were collected, quantified by SDS-PAGE analysis (DNS), and the pH dependence of the variant was evaluated using biolayer interferometry (BLI) on an Octet RED 96e instrument. Briefly, cell culture supernatants were diluted based on qualitative expression level of the variant determined by visual examination of SDS-PAGE gels, 5 μL of cell culture supernatant was diluted into 195 μL of 1×PBST, pH 7.4 for high expressors, 25 μL of cell culture supernatant was diluted into 175 μL of 1×PBST, pH 7.4 for medium expressors and 100 μL of cell culture supernatant was diluted into 100 μL of 1×PBST, pH 7.4 for low expressors for loading onto the sensor tips. The resulting diluted supernatants were then captured on an anti-human Fc sensor (Forte Bio). A baseline was established using 1×PBST (50 mM Potassium Phosphate Buffer+150 mM NaCl+0.05% Tween 20) pH 7.4, and the sensor was associated with 50 nM of TROP2 (Human TROP2 Protein, His Tag, Acro Biosystems) in 1×PBST pH 7.4 for 120 sec to generate an association curve. In the dissociation phase, the antibody-antigen complex on the sensor was exposed to 1×PBST pH 7.4 or pH 5.4, for 300 sec. Association and dissociation phase curves were examined for the starting ABPC antibody (with no substitutions) and each corresponding antibody variant at pH 5.4 and pH 7.4 to inform on two criteria: a) enhanced dissociation (i.e., higher koff values) at pH 5.4 due to histidine or alanine substitution compared to the starting ABPC, (with no substitutions), and b) reduced dissociation at pH 7.4 (i.e., lower koff values) compared to pH 5.4 in the antibody variant itself and with the starting ABPC (with no substitutions). […] It was also noted that while some mutations obliterated TROP2 binding, others were tolerated with little or n change in TROP2 binding kinetics.

| Binder | binding result |
| --- | --- |
| B12 | binds |
| B13 | binds |
| B14 | binds |
| B15 | binds |
| B16 | binds |
| B17 | binds |
| B18 | binds |
| B19 | binds |
| B20 | binds |
| B21 | binds |
| B22 | binds |
| B23 | binds |
| B24 | binds |
| B25 | binds |
| B26 | binds |
| B27 | binds |
| B28 | binds |
| B29 | binds |

The binders below were run against T3, Human TROP2 Protein, His Tag (Acro Biosystems) (human, UniProt P09758 27-274) (assay: BLI (Octet) [1/2]).
T3 construct: Bought antigen used at 50 nM in the Octet screen; also called TACSTD2; not shown: His tag
T3 sequence (looked up): T1 sequence (looked up)
Protocol: as §1

| Binder | binding result |
| --- | --- |
| B30 | binds |
| B31 | binds |
| B32 | binds |
